From patent US20030054004A1 (published 2003)

Experiments:
[1] = biological target: human lymphotoxin (TNFβ) (human) (UniProt P01374); assay: cell-based or functional assay
recombinant human TNFα = recombinant human TNFα (human, UniProt P01375 77-233); assay: cell-based or functional assay
Sequence of recombinant human TNFα (P01375 77-233): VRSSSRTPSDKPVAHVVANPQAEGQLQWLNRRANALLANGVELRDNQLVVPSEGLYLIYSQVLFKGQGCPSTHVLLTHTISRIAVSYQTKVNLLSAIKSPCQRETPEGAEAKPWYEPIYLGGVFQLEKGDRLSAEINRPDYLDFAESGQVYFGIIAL

Sequence of human lymphotoxin (TNFβ) (human) (P01374 35-205 limits assumed): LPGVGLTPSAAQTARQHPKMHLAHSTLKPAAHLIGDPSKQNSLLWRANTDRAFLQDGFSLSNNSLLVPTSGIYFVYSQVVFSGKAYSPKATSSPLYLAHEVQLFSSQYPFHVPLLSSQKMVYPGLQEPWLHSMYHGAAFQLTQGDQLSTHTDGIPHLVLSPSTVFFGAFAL

**Q.** “p75P-sf2 (p75 extracellular domain lacking the C-terminal 53 amino acids, fused to the IgG1 heavy chain) (from UniProt P20333 23-204) (Fc fusion)” was tested. Which concentration to half-inhibit human TNFβ at 2 pM, WEHI 164 cytotoxicity [1] did it give?
**A.** 31 pM

B1: chimeric mouse/human IgG1 anti-platelet mAb (7E3) (antibody, INN chains, looked up, V domains shown)
VH: EVQLQQSGTVLARPGASVKMSCEASGYTFTNYWMHWVKQRPGQGLEWIGAIYPGNSDTSYIQKFKGKAKLTAVTSTTSVYMELSSLTNEDSAVYYCTLYDGYYVFAYWGQGTLVTVSA
VL: EIVLTQSPVTLSVTPGDSVSLSCRASRDISNNLHWFQQTSHESPRLLIKYASQSMSGIPSRFSGSGSGTDFTLSINSVETEDFGMYFCQQTNSWPYTFGGGTKLEIK
modifications: IgG1
**Q.** What does the source list for B1?
**A.** IL-6 in supernatant of FS-4 fibroblasts; TNF 0.3 ng/ml, 4 µg/ml antibody (recombinant human TNFα): 1.6 ng/mL; IL-6 in supernatant of FS-4 fibroblasts; TNF 1.5 ng/ml, 4 µg/ml antibody (recombinant human TNFα): 1.96 ng/mL; IL-6 in supernatant of FS-4 fibroblasts; TNF 7.5 ng/ml, 4 µg/ml antibody (recombinant human TNFα): 2.16 ng/mL

B2: p75P-sf3 (as p75P-sf2 but lacking the CH1 domain) (Fc fusion, human, not shown: a dimerising Fc or GST)
heavy: QLPAQVAFTPYAPEPGSTCRLREYYDQTAQMCCSKCSPGQHAKVFCTKTSDTVCDSCEDSTYTQLWNWVPECLSCGSRCSSDQVETQACTREQNRICTCRPGWYCALSKQEGCRLCAPLRKCRPGFGVARPGTETSDVVCKPCAPGTFSNTTSSTDICRPHQICNVVAIPGNASMDAVCTSTSGTLVTVSS
**Q.** With B2 as the molecule, how does the “IC50: concentration of fusion protein required to inhibit 2 ng/ml (39.2 pM) TNFα by 50%, WEHI 164 cytotoxicity” value (recombinant human TNFα) read?
**A.** 130 pM

B3: p55-sf3 (p55 / IgG1 heavy chain fusion lacking the CH1 domain) (Fc fusion, human, not shown: a dimerising Fc or GST)
heavy: QVCPQGKYIHPQNNSICCTKCHKGTYLYNDCPGPGQDTDCRECESGSFTASENHLRHCLSCSKCRKEMGQVEISSCTVDRDTVCGCRKNQYRHYWSENLFQCFNCSLCLNGTVHLSCQEKQNTVCTCHAGFFLRENECVSCSNCKKSLECTKLCLPQIGTLVTVSS
**Q.** How did the “IC50: concentration of fusion protein required to inhibit 2 ng/ml (39.2 pM) TNFα by 50%, WEHI 164 cytotoxicity” value (recombinant human TNFα) turn out when B3 was run?
**A.** 100 pM
